Assay results as given in patent US12097241B2, “Methods of treating kidney failure, and/or improving or stablizing renal function using modified relaxin polypeptides” (BRISTOL-MYERS SQUIBB COMPANY, priority 2017, dated 2024).
Like-named read-outs stand apart in the source and are kept apart here.

What was measured:
human RXFP1 receptor = biological target: T1, human RXFP1 receptor (Homo sapiens, UniProt Q9HBX9); test: Intracellular cAMP accumulation assay; format: cell-based
T1 construct: expressed in transfected cells
T1 sequence (Q9HBX9 1-757): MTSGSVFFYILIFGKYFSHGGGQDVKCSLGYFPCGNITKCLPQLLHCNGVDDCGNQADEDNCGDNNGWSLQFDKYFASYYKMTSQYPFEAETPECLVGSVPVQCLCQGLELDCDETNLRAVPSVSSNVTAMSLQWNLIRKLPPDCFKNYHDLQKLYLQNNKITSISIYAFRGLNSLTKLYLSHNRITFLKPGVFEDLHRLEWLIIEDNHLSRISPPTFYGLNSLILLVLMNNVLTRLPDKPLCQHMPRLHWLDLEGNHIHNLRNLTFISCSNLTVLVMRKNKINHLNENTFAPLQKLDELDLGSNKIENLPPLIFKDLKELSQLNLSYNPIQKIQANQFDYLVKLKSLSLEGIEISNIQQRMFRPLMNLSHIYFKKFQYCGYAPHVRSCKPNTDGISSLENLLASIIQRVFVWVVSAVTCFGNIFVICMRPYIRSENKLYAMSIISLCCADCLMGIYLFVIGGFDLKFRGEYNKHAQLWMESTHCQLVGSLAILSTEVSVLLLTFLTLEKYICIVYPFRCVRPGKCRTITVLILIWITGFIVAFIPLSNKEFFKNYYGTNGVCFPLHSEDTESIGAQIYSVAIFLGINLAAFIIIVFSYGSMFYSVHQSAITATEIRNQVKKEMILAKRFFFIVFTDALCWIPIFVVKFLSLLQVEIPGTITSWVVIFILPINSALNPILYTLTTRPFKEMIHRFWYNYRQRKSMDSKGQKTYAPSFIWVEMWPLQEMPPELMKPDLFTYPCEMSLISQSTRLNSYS
Protocol: The intracellular cAMP accumulation assay described herein was used to assess relaxin bioactivity and potency.
CHO-K1 cells (ATCC; Cat. #CRL-9618) stably expressing the human RXFP1 receptor (locus number LOC59350) (10,000/well) were plated into 96-well plates and cultured overnight at 37° C. and 5% CO2. On the following day, the medium was removed from the wells and the cells were stimulated with the addition of ligand (relaxin polypeptide) in 50 uL buffer (1×HBSS, 5 mM HEPES (7.2), 0.5 mM IBMX, 0.1% BSA); incubation was for 10 min at 37° C. Unstimulated cells were utilized as reference controls. Reactions were terminated and cellular cAMP levels were measured using the Homogeneous Time Resolved Fluorescence (HTRF) Dynamic 2 cAMP kit (CisBio, #62AM4PEC) according to the manufacturer's protocol. Plates were analyzed using an EnVision 2104 Multilablel Reader (PerkinElmer). Signal was expressed in terms of the ratio of fluorescence intensity @ 665 nm/fluorescence intensity @620 nm×10,000. The concentration of cAMP in the sample was determined by comparison with standard curves generated from known concentrations of cAMP. The potency of each relaxin was determined using a ten-point concentration response curves which was performed in duplicate. The data were analyzed using Microsoft Excel, Version 2013 Xlfit software. Effective concentration 50 (EC50) values, the point at which the response was one-half maximal, were calculated using a four-parameter logistic equation that allowed for a variable-slope (Table 3).

[1] = In vivo pharmacokinetic (PK) studies in rats; parameters: species or system Sprague-Dawley rats; conditions: rat; for AUC(0-inf): read-out: Rat PK AUC Total; for level at time molar at 24 h: read-out: Rat PK C24
Summary of the method: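 Male Sprague-Dawley rats (n=3) given a single 1 mg/kg IV or SC dose of relaxin constructs in 20 mM histidine, 750 mM NaCl, pH 6.0; jugular serum sampled to 72 h. Serum relaxin by ELISA; Cmax, AUCinf, C24 and half-life from non-compartmental analysis of individual profiles.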

[2] = CHO-K1 cells stably expressing human RXFP1, 10 min at 37° C., HTRF cAMP, average, read-out: hRXFP1/CHO-K1 cAMP EC50 (nM, avg)
[3] = male, Sprague-Dawley, serum, rats, SC dose 0.8 mg/kg
[4] = male Sprague-Dawley rats, single SC dose 1.0 mg/kg, serum ELISA

CC[C@H](C)[C@@H]1NC(=O)[C@H](C)NC(=O)[C@H]([C@@H](C)CC)NC(=O)[C@H](CCC(N)=O)NC(=O)[C@H](C)NC(=O)[C@H](CCCNC(=N)N)NC(=O)[C@H](C(C)C)NC(=O)[C@H](CC(C)C)NC(=O)[C@H](CCC(=O)O)NC(=O)[C@H](CCCNC(=N)N)NC(=O)CNC(=O)[C@@H](NC(=O)[C@H](CC(C)C)NC(=O)[C@H](CCCCN)NC(=O)[C@@H](NC(=O)[C@@H](NC(=O)[C@H](CCC(=O)O)NC(=O)[C@H](CCC(=O)O)NC(=O)[C@H](CCSC)NC(=O)[C@H](Cc2c[nH]c3ccccc23)NC(=O)[C@H](CO)NC(=O)[C@H](C)N)C(C)C)[C@@H](C)CC)CSSC[C@@H]2NC(=O)[C@@H](NC(=O)[C@H](CCCCN)NC(=O)[C@H](CC(N)=O)NC(=O)[C@H](C)NC(=O)[C@H](CC(C)C)NC(=O)[C@H](C)NC(=O)[C@H](CO)NC(=O)[C@H](Cc3ccc(O)cc3)NC(=O)[C@H](CC(C)C)NC(=O)[C@@H](N)Cc3ccc(C(C)=NOCCNC(=O)CNC(=O)CNC(=O)CNC(=O)CNC(=O)[C@H](CO)NC(=O)CC[C@H](NC(=O)CCCCCCCCCCCCC(=O)O)C(=O)O)cc3)CSSC[C@H](NC(=O)CNC(=O)[C@H](C(C)C)NC(=O)[C@H](Cc3c[nH]cn3)NC2=O)C(=O)N[C@@H]([C@@H](C)O)C(=O)N[C@@H](CCCCN)C(=O)N[C@@H](CCCNC(=N)N)C(=O)N[C@@H](CO)C(=O)N[C@@H](CC(C)C)C(=O)N[C@@H](C)C(=O)N[C@@H](CCCNC(=N)N)C(=O)N[C@@H](Cc2ccccc2)C(=O)N[C@H](C(=O)O)CSSC[C@@H](C(=O)NCC(=O)N[C@@H](CCSC)C(=O)N[C@@H](CO)C(=O)N[C@H](C(=O)N[C@@H](Cc2c[nH]c3ccccc23)C(=O)N[C@@H](CO)C(=O)O)[C@@H](C)O)NC1=O [AQ1-GGGGS-Glu^γ-C13-COOH] showed an EC50 (human RXFP1 receptor; [2]) of 0.14 nM, an AUC(0-inf) [1, 3] of 1.1 µM·h and a level at time molar at 24 h [1, 3] of 1.52 nM.

For CC[C@H](C)[C@@H]1NC(=O)[C@H](C)NC(=O)[C@H]([C@@H](C)CC)NC(=O)[C@H](CCC(N)=O)NC(=O)[C@H](C)NC(=O)[C@H](CCCNC(=N)N)NC(=O)[C@H](C(C)C)NC(=O)[C@H](CC(C)C)NC(=O)[C@H](CCC(=O)O)NC(=O)[C@H](CCCNC(=N)N)NC(=O)CNC(=O)[C@@H](NC(=O)[C@H](CC(C)C)NC(=O)[C@H](CCCCN)NC(=O)[C@@H](NC(=O)[C@@H](NC(=O)[C@H](CCC(=O)O)NC(=O)[C@H](CCC(=O)O)NC(=O)[C@H](CCSC)NC(=O)[C@H](Cc2c[nH]c3ccccc23)NC(=O)[C@H](CO)NC(=O)[C@H](C)N)C(C)C)[C@@H](C)CC)CSSC[C@@H]2NC(=O)[C@@H](NC(=O)[C@H](CCCCN)NC(=O)[C@H](CC(N)=O)NC(=O)[C@H](C)NC(=O)[C@H](CC(C)C)NC(=O)[C@H](C)NC(=O)[C@H](CO)NC(=O)[C@H](Cc3ccc(O)cc3)NC(=O)[C@H](CC(C)C)NC(=O)[C@@H](N)Cc3ccc(/C(C)=N/OCCNC(=O)CNC(=O)[C@H](CO)NC(=O)[C@H](Cc4c[nH]cn4)NC(=O)[C@H](Cc4c[nH]cn4)NC(=O)[C@H](Cc4c[nH]cn4)NC(=O)[C@H](Cc4c[nH]cn4)NC(=O)[C@H](Cc4c[nH]cn4)NC(=O)CNC(=O)[C@H](CO)NC(=O)CC[C@H](NC(=O)CCCCCCCCCCCCC(=O)O)C(=O)O)cc3)CSSC[C@H](NC(=O)CNC(=O)[C@H](C(C)C)NC(=O)[C@H](Cc3c[nH]cn3)NC2=O)C(=O)N[C@@H]([C@@H](C)O)C(=O)N[C@@H](CCCCN)C(=O)N[C@@H](CCCNC(=N)N)C(=O)N[C@@H](CO)C(=O)N[C@@H](CC(C)C)C(=O)N[C@@H](C)C(=O)N[C@@H](CCCNC(=N)N)C(=O)N[C@@H](Cc2ccccc2)C(=O)N[C@H](C(=O)O)CSSC[C@@H](C(=O)NCC(=O)N[C@@H](CCSC)C(=O)N[C@@H](CO)C(=O)N[C@H](C(=O)N[C@@H](Cc2c[nH]c3ccccc23)C(=O)N[C@@H](CO)C(=O)O)[C@@H](C)O)NC1=O [AQ1-GSHHHHHGS-Glu^γ-C13-COOH], the EC50 (human RXFP1 receptor; [2]) was 0.28 nM, the AUC(0-inf) [1, 4] was 0.582 µM·h and the level at time molar at 24 h [1, 4] was 0.46 nM.

In the case of CC[C@H](C)[C@@H]1NC(=O)[C@H](C)NC(=O)[C@H]([C@@H](C)CC)NC(=O)[C@H](CCC(N)=O)NC(=O)[C@H](C)NC(=O)[C@H](CCCNC(=N)N)NC(=O)[C@H](C(C)C)NC(=O)[C@H](CC(C)C)NC(=O)[C@H](CCC(=O)O)NC(=O)[C@H](CCCNC(=N)N)NC(=O)CNC(=O)[C@@H](NC(=O)[C@H](CC(C)C)NC(=O)[C@H](CCCCN)NC(=O)[C@@H](NC(=O)[C@@H](NC(=O)[C@H](CCC(=O)O)NC(=O)[C@H](CCC(=O)O)NC(=O)[C@H](CCSC)NC(=O)[C@H](Cc2c[nH]c3ccccc23)NC(=O)[C@H](CO)NC(=O)[C@H](C)N)C(C)C)[C@@H](C)CC)CSSC[C@@H]2NC(=O)[C@@H](NC(=O)[C@H](CCCCN)NC(=O)[C@H](CC(N)=O)NC(=O)[C@H](C)NC(=O)[C@H](CC(C)C)NC(=O)[C@H](C)NC(=O)[C@H](CO)NC(=O)[C@H](Cc3ccc(O)cc3)NC(=O)[C@H](CC(C)C)NC(=O)[C@@H](N)Cc3ccc(/C(C)=N/OCCNC(=O)CNC(=O)[C@H](CO)NC(=O)[C@@H]4CCCN4C(=O)CNC(=O)[C@H](CO)NC(=O)[C@@H]4CCCN4C(=O)CC[C@H](NC(=O)CCCCCCCCCCCCCC(=O)O)C(=O)O)cc3)CSSC[C@H](NC(=O)CNC(=O)[C@H](C(C)C)NC(=O)[C@H](Cc3c[nH]cn3)NC2=O)C(=O)N[C@@H]([C@@H](C)O)C(=O)N[C@@H](CCCCN)C(=O)N[C@@H](CCCNC(=N)N)C(=O)N[C@@H](CO)C(=O)N[C@@H](CC(C)C)C(=O)N[C@@H](C)C(=O)N[C@@H](CCCNC(=N)N)C(=O)N[C@@H](Cc2ccccc2)C(=O)N[C@H](C(=O)O)CSSC[C@@H](C(=O)NCC(=O)N[C@@H](CCSC)C(=O)N[C@@H](CO)C(=O)N[C@H](C(=O)N[C@@H](Cc2c[nH]c3ccccc23)C(=O)N[C@@H](CO)C(=O)O)[C@@H](C)O)NC1=O [AQ1-GSPGSP-Glu^γ-C14-COOH], the EC50 (human RXFP1 receptor) is reported as 0.29 nM, the AUC(0-inf) [1, 4] is reported as 1.98 µM·h and the level at time molar at 24 h [1, 4] is reported as 5 nM.

CC[C@H](C)[C@@H]1NC(=O)[C@H](C)NC(=O)[C@H]([C@@H](C)CC)NC(=O)[C@H](CCC(N)=O)NC(=O)[C@H](C)NC(=O)[C@H](CCCNC(=N)N)NC(=O)[C@H](C(C)C)NC(=O)[C@H](CC(C)C)NC(=O)[C@H](CCC(=O)O)NC(=O)[C@H](CCCNC(=N)N)NC(=O)CNC(=O)[C@@H](NC(=O)[C@H](CC(C)C)NC(=O)[C@H](CCCCN)NC(=O)[C@@H](NC(=O)[C@@H](NC(=O)[C@H](CCC(=O)O)NC(=O)[C@H](CCC(=O)O)NC(=O)[C@H](CCSC)NC(=O)[C@H](Cc2c[nH]c3ccccc23)NC(=O)[C@H](CO)NC(=O)[C@H](C)N)C(C)C)[C@@H](C)CC)CSSC[C@@H]2NC(=O)[C@@H](NC(=O)[C@H](CCCCN)NC(=O)[C@H](CC(N)=O)NC(=O)[C@H](C)NC(=O)[C@H](CC(C)C)NC(=O)[C@H](C)NC(=O)[C@H](CO)NC(=O)[C@H](Cc3ccc(O)cc3)NC(=O)[C@H](CC(C)C)NC(=O)[C@@H](N)Cc3ccc(C(C)=NOCCNC(=O)[C@H](CCCCN)NC(=O)[C@H](CCCCN)NC(=O)CC[C@H](NC(=O)CCCCCCCCCCCCCC(=O)O)C(=O)O)cc3)CSSC[C@H](NC(=O)CNC(=O)[C@H](C(C)C)NC(=O)[C@H](Cc3c[nH]cn3)NC2=O)C(=O)N[C@@H]([C@@H](C)O)C(=O)N[C@@H](CCCCN)C(=O)N[C@@H](CCCNC(=N)N)C(=O)N[C@@H](CO)C(=O)N[C@@H](CC(C)C)C(=O)N[C@@H](C)C(=O)N[C@@H](CCCNC(=N)N)C(=O)N[C@@H](Cc2ccccc2)C(=O)N[C@H](C(=O)O)CSSC[C@@H](C(=O)NCC(=O)N[C@@H](CCSC)C(=O)N[C@@H](CO)C(=O)N[C@H](C(=O)N[C@@H](Cc2c[nH]c3ccccc23)C(=O)N[C@@H](CO)C(=O)O)[C@@H](C)O)NC1=O [AQ1-KK-Glu^γ-C14-COOH] showed an EC50 (human RXFP1 receptor) of 0.34 nM, an AUC(0-inf) [1, 4] of 0.451 µM·h and a level at time molar at 24 h [1, 4] of 1.5 nM.
